We go through three substances from publication PMC5674511, “Increase of enzyme activity through specific covalent modification with fragments” (Chemical Science, 2017).

Data set [1] concerns T1, CC(=O)N[C@H]1[C@H](Oc2ccc3c(C)cc(=O)oc3c2)O[C@H](CO)[C@@H](O)[C@@H]1O.
T1 construct: recombinant purified enzyme
The experiment in a line: fluorescence, 4MU release, Michaelis-Menten. The data set is classed as biochemical, Bacteroides thetaiotaomicron.

The test system is the same in data set [2]. The data set is described as follows: fluorescence, 4MU release, Michaelis-Menten. The conditions noted are these: unmodified BtGH84_TM (no tethered fragment). In kind it is biochemical, Bacteroides thetaiotaomicron. The source says:
fluorescence, 4MU release, Michaelis-Menten on BtGH84

With “BtGH84 (Bacteroides thetaiotaomicron VPI-5482; C441S/C675S/Y158F/Y571C)”, in data set [1] (unmodified BtGH84_QM), the Michaelis constant (Km) came out at 11.215 ± 3.274 mM and the kcat stood at 77 ± 15 s⁻¹.

Take “BtGH84 (Bacteroides thetaiotaomicron VPI-5482; C441S/C675S/Y571C)”: in data set [2], the Michaelis-Menten constant (Km) came to 4.68 ± 0.22 mM, the turnover number (kcat) is 127 ± 6 s⁻¹ and the kcat/Km was 27200 ± 2460 M⁻¹ s⁻¹.

With “BtGH84 (Bacteroides thetaiotaomicron VPI-5482; Y158F)”, in data set [1] (unmodified BtGH84_Y137F), the Km was 6.61 ± 1.282 mM and the kcat was determined as 87 ± 4 s⁻¹.

What is called Km is the concentration of substrate that gives half-maximal velocity. What is called kcat is the number of substrate molecules converted per active site and unit of time at saturation. The kcat/Km is the second-order rate constant that governs catalysis at low substrate concentration.
